Experimental data published in patent US20020086844A1 (Harvard, published 2002).

Target: T1, constitutively expressed nonmitochondrial Hsp70 homolog Hsc70 (human, UniProt P11142 2-646)
T1 construct: Endogenous; used as the control in the co-immunoprecipitation
Experiment: co-immunoprecipitation with hTid-1-specific mAbs, immunoblot for Hsc70
Procedure: FIG. 2C. Endogenous hTid-1L and hTid-1S coimmunoprecipitate with mtHsp70. Immunoprecipitation experiments were performed from U20S cells by using mAbs specific for either hTid-1, mtHsp70, or Hsc70. Immune complexes were analyzed by SDS/PAGE and Western blot with hTid-1-, mtHsp70-, or Hsc70-specific mAbs.
Because hTid-1 proteins have extremely well conserved J domains, we suspected that they may be interacting with the mitochondrial Hsp70 homolog, mtHsp70 (GRP75), which is also localized to the mitochondrial matrix. We performed coimmunoprecipitation-immunoblot experiments by using mAbs specific for hTid-1, mtHsp70, or the constitutively expressed nonmitochondrial Hsp70 homolog Hsc70 as a control. hTid-1-specific mAbs immunoprecipitate endogenous hTid-1L and hTid-1S in complex with mtHsp70 from human U2OS cells. (FIG. 2C).

T1 sequence (P11142 2-646 limits assumed): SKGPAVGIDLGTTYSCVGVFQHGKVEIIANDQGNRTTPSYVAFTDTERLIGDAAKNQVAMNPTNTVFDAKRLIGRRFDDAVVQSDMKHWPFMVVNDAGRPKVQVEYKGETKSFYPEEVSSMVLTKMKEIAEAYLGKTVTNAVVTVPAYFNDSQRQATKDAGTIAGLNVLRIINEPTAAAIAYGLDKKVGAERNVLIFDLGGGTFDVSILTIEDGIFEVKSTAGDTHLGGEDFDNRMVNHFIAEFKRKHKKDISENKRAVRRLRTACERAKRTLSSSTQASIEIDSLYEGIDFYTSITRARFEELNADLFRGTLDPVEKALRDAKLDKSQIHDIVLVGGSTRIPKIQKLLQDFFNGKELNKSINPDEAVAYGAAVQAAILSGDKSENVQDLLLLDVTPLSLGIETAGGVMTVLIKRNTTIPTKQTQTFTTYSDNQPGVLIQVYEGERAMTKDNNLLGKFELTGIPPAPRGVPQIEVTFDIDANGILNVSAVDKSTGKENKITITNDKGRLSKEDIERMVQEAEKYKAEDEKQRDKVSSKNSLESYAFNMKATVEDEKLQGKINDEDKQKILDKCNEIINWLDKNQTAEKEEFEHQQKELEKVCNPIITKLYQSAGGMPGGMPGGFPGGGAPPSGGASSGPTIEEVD

| binding result | Binder |
| --- | --- |
| no binding | hTid-1L (other, Endogenous protein from human cell lysates; also called long form of human Tid1; 43 kDa TID1 splice variant) VSLTGTKHNPFICTASFHTSAPLAKEDYYQILGVPRNASQKEIKKAYYQLAKKYHPDTNKDDPKAKEKFSQLAEAYEVLSDEVKRKQYDAYGSAGFDPGASGSQHSYWKGGPTVDPEELFRKIFGEFSSSSFGDFQTVFDQPQEYFMELTFNQAAKGVNKEFTVNIMDTCERCNGKGNEPGTKVQHCHYCGGSGMETINTGPFVMRSTCRRCGGRGSIIISPCVVCRGAGQAKQKKRVMIPVPAGVEDGQTVRMPVGKREIFITFRVQKSPVFRRDGADIHSDLFISIAQALLGGTARAQGLYETINVTIPPGTQTDQKIRMGGKGIPRINSYGYGDHYIHIKIRVPKRLTSRQQSLILSYAEDETDVEGTVNGVTLTSSGGSTMDSSAGSKARREAGEDEEGFLSKLKKMFTS |
| no binding | hTid-1S (other, Endogenous protein from human cell lysates; also called short form of human Tid1; 40 kDa TID1 splice variant) VSLTGTKHNPFICTASFHTSAPLAKEDYYQILGVPRNASQKEIKKAYYQLAKKYHPDTNKDDPKAKEKFSQLAEAYEVLSDEVKRKQYDAYGSAGFDPGASGSQHSYWKGGPTVDPEELFRKIFGEFSSSSFGDFQTVFDQPQEYFMELTFNQAAKGVNKEFTVNIMDTCERCNGKGNEPGTKVQHCHYCGGSGMETINTGPFVMRSTCRRCGGRGSIIISPCVVCRGAGQAKQKKRVMIPVPAGVEDGQTVRMPVGKREIFITFRVQKSPVFRRDGADIHSDLFISIAQALLGGTARAQGLYETINVTIPPGTQTDQKIRMGGKGIPRINSYGYGDHYIHIKIRVPKRLTSRQQSLILSYAEDETDVEGTVNGVTLTSSGKRSTGN |
